Measured values taken from patent US20180057536.

Assays:
[1] = system: T1, Selective delivery molecule 9 (SDM-9)
T1 sequence: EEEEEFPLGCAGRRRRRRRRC

[2] = system: T2, Selective delivery molecule 10 (SDM-10)
T2 sequence: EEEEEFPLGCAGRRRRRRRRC

| Substance | Cy5 donor emission after protease cleavage (FRET disruption), 1 uM SDM-9 in TCNB buffer [1] | Cy7 acceptor emission after protease cleavage (FRET disruption), 1 uM SDM-9 in TCNB buffer [1] | Cy5 fluorescence enhancement after protease cleavage (dequenching), 1 uM SDM-10 in TCNB buffer [2] | fluorescent cleavage fragment on polyacrylamide gel (1 nM MMP-9, 1 uM SDM-10, 24 h, 37 C) [2] |
| --- | --- | --- | --- | --- |
| matrix metalloproteinase-2 (MMP-2) | a large 8-fold increase the Cy5 donor emission | 2-fold decrease in the Cy7 emission | – | – |
| MMP-9 | – | – | the fluorescence was enhanced >100-fold upon protease cleavage | After cleavage by MMP-9 the fragment containing the fluorophore is dequenched (becoming highly fluorescent) and runs near the bottom of the gel |
